This test deals with fibroblasts or tumor cell lines. Put plainly: Short-term growth factor signaling (TGFb, PDGF-BB) with or without AB0023. It counts as cell-based.

This note sets out measurements from US20110076272A1, “THERAPEUTIC METHODS AND COMPOSITIONS” (priority 2009, published 2011).

B1: AB0023: mouse anti-human LOXL2 monoclonal antibody; heavy chain variable region SEQ ID NO:1, light chain variable region SEQ ID NO:2 (antibody, listed as Mus musculus, V domains shown)
VH: MEWSRVFIFLLSVTAGVHSQVQLQQSGAELVRPGTSVKVSCKASGYAFTYYLIEWVKQRPGQGLEWIGVINPGSGGTNYNEKFKGKATLTADKSSSTAYMQLSSLTSDDSAVYFCARNWMNFDYWGQGTTLTVSS
VL: MRCLAEFLGLLVLWIPGAIGDIVMTQAAPSVSVTPGESVSISCRSSKSLLHSNGNTYLYWFLQRPGQSPQFLIYRMSNLASGVPDRFSGSGSGTAFTLRISRVEAEDVGVYYCMQHLEYPYTFGGGTKLEIK
modifications: Heavy chain; Light chain
Regarding B1, the “inhibition of SMAD2 phosphorylation (TGFb signaling)” value (10-60 minute time frame) was 10-20%. Moreover, the “effect on AKT phosphorylation” value (PDGF-BB, 10-60 minute time periods) was “No significant effects”.
